One may read the Kd as the free concentration of one partner at which half of the binding sites on the other are occupied at equilibrium, for simple one-to-one binding. Low readings indicate a tighter complex, high ones a looser complex.

For 13 molecules, Kd results are on record in paper PMC10786891, “Massively parallel profiling of RNA-targeting CRISPR-Cas13d”.

First the molecules themselves.
T1: EsCas13d, nuclease-dead (Eubacterium siraeum, UniProt B0MS50, R295A;H300A;R849A;H854A)
T1 sequence: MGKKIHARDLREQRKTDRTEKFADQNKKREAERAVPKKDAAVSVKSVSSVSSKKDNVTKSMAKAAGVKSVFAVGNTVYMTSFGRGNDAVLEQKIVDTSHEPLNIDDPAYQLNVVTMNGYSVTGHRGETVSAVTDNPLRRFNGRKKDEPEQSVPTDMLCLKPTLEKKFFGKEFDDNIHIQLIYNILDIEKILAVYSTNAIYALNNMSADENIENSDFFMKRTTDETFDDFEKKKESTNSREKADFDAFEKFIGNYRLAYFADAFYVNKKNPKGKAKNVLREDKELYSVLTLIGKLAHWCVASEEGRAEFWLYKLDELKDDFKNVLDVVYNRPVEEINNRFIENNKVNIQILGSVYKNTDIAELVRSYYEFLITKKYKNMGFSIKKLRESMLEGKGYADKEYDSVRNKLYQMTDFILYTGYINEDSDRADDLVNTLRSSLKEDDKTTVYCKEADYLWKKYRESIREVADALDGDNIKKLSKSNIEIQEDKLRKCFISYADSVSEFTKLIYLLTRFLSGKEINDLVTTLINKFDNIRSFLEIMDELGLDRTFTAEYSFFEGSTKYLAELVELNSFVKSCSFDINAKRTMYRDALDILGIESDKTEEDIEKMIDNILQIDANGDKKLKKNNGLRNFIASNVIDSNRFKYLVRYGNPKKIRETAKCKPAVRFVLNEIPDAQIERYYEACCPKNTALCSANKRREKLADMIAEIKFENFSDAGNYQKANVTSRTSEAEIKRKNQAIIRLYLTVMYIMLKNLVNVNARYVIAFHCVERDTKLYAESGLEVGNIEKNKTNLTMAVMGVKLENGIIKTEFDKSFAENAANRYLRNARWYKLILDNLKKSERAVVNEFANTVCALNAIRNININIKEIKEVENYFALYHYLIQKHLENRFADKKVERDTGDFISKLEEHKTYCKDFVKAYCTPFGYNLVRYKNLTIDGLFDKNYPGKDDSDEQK

B1: target 1 insA 3' of 11,insU 3' of 6 (mixed)
RNA 1: CACCCGUGCAAAAAUGCAGGGGUCUAAAACUGAGCGGAUAACCUCUCUAUGG
RNA 2: GGGAAUGGAUCCACAUCUACGAAUUCGUACCAUAGAGAGGUAUAUCCUGCUCACCGAGAUCGGAAGAGCACACGU
B2: target 1 U8G,G13A (mixed)
RNA 1: CACCCGUGCAAAAAUGCAGGGGUCUAAAACUGAGCGGAUAACCUCUCUAUGG
RNA 2: GGGAAUGGAUCCACAUCUACGAAUUCGUACCAUAGAGAAGUUAGCCGCUCACCGAGAUCGGAAGAGCACACGU
B3: target 1 U11A,G17A (mixed)
RNA 1: CACCCGUGCAAAAAUGCAGGGGUCUAAAACUGAGCGGAUAACCUCUCUAUGG
RNA 2: GGGAAUGGAUCCACAUCUACGAAUUCGUACCAUAAAGAGGAUAUCCGCUCACCGAGAUCGGAAGAGCACACGU
B4: target 1 C4U,U10G (mixed)
RNA 1: CACCCGUGCAAAAAUGCAGGGGUCUAAAACUGAGCGGAUAACCUCUCUAUGG
RNA 2: GGGAAUGGAUCCACAUCUACGAAUUCGUACCAUAGAGAGGUGAUCCGUUCACCGAGAUCGGAAGAGCACACGU
B5: target 1 C22U (mixed)
RNA 1: CACCCGUGCAAAAAUGCAGGGGUCUAAAACUGAGCGGAUAACCUCUCUAUGG
RNA 2: GGGAAUGGAUCCACAUCUACGAAUUCGUAUCAUAGAGAGGUUAUCCGCUCACCGAGAUCGGAAGAGCACACGU
B6: target 1 insG 3' of 16,insA 3' of 3 (mixed)
RNA 1: CACCCGUGCAAAAAUGCAGGGGUCUAAAACUGAGCGGAUAACCUCUCUAUGG
RNA 2: GGGAAUGGAUCCACAUCUACGAAUUCGUACCAUAGAGGAGGUUAUCCGCUACACCGAGAUCGGAAGAGCACACGU
B7: target 1 A1C,G13C (mixed)
RNA 1: CACCCGUGCAAAAAUGCAGGGGUCUAAAACUGAGCGGAUAACCUCUCUAUGG
RNA 2: GGGAAUGGAUCCACAUCUACGAAUUCGUACCAUAGAGACGUUAUCCGCUCCCCGAGAUCGGAAGAGCACACGU
B8: target 1 C2G,C6A (mixed)
RNA 1: CACCCGUGCAAAAAUGCAGGGGUCUAAAACUGAGCGGAUAACCUCUCUAUGG
RNA 2: GGGAAUGGAUCCACAUCUACGAAUUCGUACCAUAGAGAGGUUAUCAGCUGACCGAGAUCGGAAGAGCACACGU
B9: target 1 insG 3' of 22,insG 3' of 9 (mixed)
RNA 1: CACCCGUGCAAAAAUGCAGGGGUCUAAAACUGAGCGGAUAACCUCUCUAUGG
RNA 2: GGGAAUGGAUCCACAUCUACGAAUUCGUACGCAUAGAGAGGUUAGUCCGCUCACCGAGAUCGGAAGAGCACACGU
B10: target 1 A1U,U11C (mixed)
RNA 1: CACCCGUGCAAAAAUGCAGGGGUCUAAAACUGAGCGGAUAACCUCUCUAUGG
RNA 2: GGGAAUGGAUCCACAUCUACGAAUUCGUACCAUAGAGAGGCUAUCCGCUCUCCGAGAUCGGAAGAGCACACGU
B11: target 1 insC 3' of 19,insU 3' of 2 (mixed)
RNA 1: CACCCGUGCAAAAAUGCAGGGGUCUAAAACUGAGCGGAUAACCUCUCUAUGG
RNA 2: GGGAAUGGAUCCACAUCUACGAAUUCGUACCAUCAGAGAGGUUAUCCGCUCUACCGAGAUCGGAAGAGCACACGU
B12: target 1 A1U,C22U (mixed)
RNA 1: CACCCGUGCAAAAAUGCAGGGGUCUAAAACUGAGCGGAUAACCUCUCUAUGG
RNA 2: GGGAAUGGAUCCACAUCUACGAAUUCGUAUCAUAGAGAGGUUAUCCGCUCUCCGAGAUCGGAAGAGCACACGU
B13: target 1 C7A,G13A (mixed)
RNA 1: CACCCGUGCAAAAAUGCAGGGGUCUAAAACUGAGCGGAUAACCUCUCUAUGG
RNA 2: GGGAAUGGAUCCACAUCUACGAAUUCGUACCAUAGAGAAGUUAUACGCUCACCGAGAUCGGAAGAGCACACGU

The series addresses T1, EsCas13d, nuclease-dead. The experiment in a line: crRNA (strand 1, pre-loaded); Mg2+; 40 mM Tris-HCl pH 7.5, 150 mM NaCl, 6 mM MgCl2, 1 mM DTT, 0.1% Tween-20, 0.2 mg/ml BSA; 25 C; 10 min per concentration, then washed. The settings on record: tags: His6-TwinStrep-SUMO cleaved; N-terminal SNAP kept (SNAP-Surface 488); label: 3' end held by stalled T7 RNA polymerase.
B1 returned a Kd of 18.2 ± 0.7 nM.
In the case of B2, the Kd worked out at 12.6 ± 0.9 nM.
In turn, B3 showed a Kd of 91 ± 13 nM.
In the case of B4, the Kd came out at 18.5 ± 1.9 nM.
As to B5, the Kd is 16.6 ± 1.1 nM.
B6 showed a Kd of 17.7 ± 1.2 nM.
Molecule B7 registered a Kd of 47 ± 11 nM.
Regarding B8, the Kd is 4.49 ± 0.17 nM.
B9 returned a dissociation constant Kd of 28.2 ± 1.8 nM.
Molecule B10 gave an equilibrium dissociation constant (Kd) of 9.3 ± 1 nM.
For B11, the Kd amounted to 32.7 ± 2.9 nM.
Next, B12: 17 ± 2.6 nM; B13: 10.8 ± 0.7 nM.
